{"source": "patent US9549967B2", "about": "“Regulation of sodium channels by PLUNC proteins” (The University of North Carolina at Chapel Hill, priority 2009, dated 2017)", "molecules": {"B1": {"name": "V5-tagged SPLUNC1 expressed in Xenopus oocytes (other, not shown: small tags and cut ends)", "chain": "QFGGLPVPLDQTLPLNVNPALPLSPTGLAGSLTNALSNGLLSGGLLGILENLPLLDILKPGGGTSGGLLGGLLGKVTSVIPGLNNIIDIKVTDPQLLELGLVQSPDGHRLYVTIPLGIKLQVNTPLVGASLLRLAVKLDITAEILAVRDKQERIHLVLGDCTHSPGSLQISLLDGLGPLPIQGLLDSLTGILNKVLPELVQGNVCPLVNEVLRGLDITLVHDIVNMLIHGLQFVIKV"}}, "key": {"[1]": {"target": "T1, ENaC containing the βS518C mutant (Rattus norvegicus, UniProt P37089+P37090+P37091, S518C)", "T1 construct": "expressed in transfected cells; host or cells: Xenopus oocytes", "T1 sequence (P37089 1-698)": "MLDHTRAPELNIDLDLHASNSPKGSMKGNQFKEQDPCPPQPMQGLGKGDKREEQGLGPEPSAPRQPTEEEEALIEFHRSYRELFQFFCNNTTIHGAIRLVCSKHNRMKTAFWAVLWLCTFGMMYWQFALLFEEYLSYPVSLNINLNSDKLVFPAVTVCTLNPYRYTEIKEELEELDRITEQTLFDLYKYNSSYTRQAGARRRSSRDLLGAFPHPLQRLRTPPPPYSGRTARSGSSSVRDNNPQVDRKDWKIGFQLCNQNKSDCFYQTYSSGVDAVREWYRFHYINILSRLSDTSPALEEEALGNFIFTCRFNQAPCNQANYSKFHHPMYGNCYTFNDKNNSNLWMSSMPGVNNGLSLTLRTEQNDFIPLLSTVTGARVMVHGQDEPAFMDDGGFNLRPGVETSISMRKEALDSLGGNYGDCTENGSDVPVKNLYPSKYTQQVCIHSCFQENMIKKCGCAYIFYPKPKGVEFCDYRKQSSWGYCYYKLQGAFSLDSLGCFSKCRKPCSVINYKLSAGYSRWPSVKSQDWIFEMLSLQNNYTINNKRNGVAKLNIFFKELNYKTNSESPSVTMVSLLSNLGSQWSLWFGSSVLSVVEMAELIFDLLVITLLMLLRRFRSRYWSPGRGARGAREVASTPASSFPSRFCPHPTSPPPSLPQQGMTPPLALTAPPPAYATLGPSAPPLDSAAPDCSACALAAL", "T1 sequence (P37090 1-638 S518C)": "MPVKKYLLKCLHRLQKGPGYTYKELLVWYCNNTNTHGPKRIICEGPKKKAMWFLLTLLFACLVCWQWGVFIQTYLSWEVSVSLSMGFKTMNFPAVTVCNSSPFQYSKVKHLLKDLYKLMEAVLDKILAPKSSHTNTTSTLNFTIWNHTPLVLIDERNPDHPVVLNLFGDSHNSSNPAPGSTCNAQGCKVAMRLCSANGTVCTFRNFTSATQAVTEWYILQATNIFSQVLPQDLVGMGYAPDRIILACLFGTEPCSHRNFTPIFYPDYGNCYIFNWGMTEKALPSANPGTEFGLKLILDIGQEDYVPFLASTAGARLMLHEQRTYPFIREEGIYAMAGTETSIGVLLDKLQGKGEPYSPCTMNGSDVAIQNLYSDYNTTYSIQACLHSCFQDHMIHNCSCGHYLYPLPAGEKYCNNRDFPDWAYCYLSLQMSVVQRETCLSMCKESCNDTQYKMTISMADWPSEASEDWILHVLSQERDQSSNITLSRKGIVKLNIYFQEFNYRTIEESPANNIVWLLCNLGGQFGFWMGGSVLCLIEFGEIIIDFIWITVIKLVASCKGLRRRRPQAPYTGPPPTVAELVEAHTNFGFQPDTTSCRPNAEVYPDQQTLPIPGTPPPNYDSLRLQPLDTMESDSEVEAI", "T1 sequence (P37091 1-650)": "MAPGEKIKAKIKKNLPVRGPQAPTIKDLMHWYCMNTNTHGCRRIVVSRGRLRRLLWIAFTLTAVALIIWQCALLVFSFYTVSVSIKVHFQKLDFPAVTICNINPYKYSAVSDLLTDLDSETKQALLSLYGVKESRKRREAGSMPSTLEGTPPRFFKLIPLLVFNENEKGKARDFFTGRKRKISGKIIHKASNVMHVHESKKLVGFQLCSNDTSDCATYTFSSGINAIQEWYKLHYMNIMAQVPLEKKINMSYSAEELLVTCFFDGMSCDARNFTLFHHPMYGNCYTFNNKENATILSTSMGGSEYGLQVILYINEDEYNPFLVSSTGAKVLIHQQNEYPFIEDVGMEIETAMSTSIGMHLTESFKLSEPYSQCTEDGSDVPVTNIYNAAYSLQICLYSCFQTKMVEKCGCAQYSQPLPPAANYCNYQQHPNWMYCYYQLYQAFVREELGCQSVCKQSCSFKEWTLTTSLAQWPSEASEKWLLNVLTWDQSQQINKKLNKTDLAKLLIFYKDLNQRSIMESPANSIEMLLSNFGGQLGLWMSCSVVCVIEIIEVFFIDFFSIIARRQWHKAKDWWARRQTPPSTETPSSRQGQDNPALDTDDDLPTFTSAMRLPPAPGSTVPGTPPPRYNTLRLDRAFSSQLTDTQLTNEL", "test": "Oocyte current of ENaC containing the βS518C mutant with MTSET", "type": "cell-based", "conditions": "addition of MTSET", "protocol": "Oocyte studies. Xenopus laevis oocytes were harvested and injected as described (Donaldson, et al., J. Biol. Chem. 277:8338 (2002)). Defolliculated healthy stage V-VI oocytes were injected with 0.3 ng of cRNA of each ENaC subunit. Injected oocytes were kept in modified Barth's saline (in mM: 88 NaCl, 1 KCl, 2.4 NaHCO3, 0.3 Ca(NO3)2, 0.41 CaCl2, 0.82 MgSO4, and 15 HEPES, adjusted to pH 7.35 with Tris). Oocytes were studied 24 hr after injection using the two electrode voltage clamp technique as previously described (Donaldson, et al., J. Biol. Chem. 277:8338 (2002)). Oocytes were clamped at a holding potential of […]. The change in amiloride-sensitive whole cell current as an indicator of ENaC activity was determined by subtracting the corresponding current value measured in the presence of 10 μM amiloride from that measured before the application of amiloride.\nThe effect of SPLUNC1 on the number of ENaC channels in the plasma membrane was tested by expressing SPLUNC1 and αENaC in Xenopus oocytes. After surface biotinylation of αENaC, total lysate was prepared and lysate from 3-4 eggs was separated on a 10% gel."}, "[2]": {"target": "αβγENaC expressed in Xenopus laevis oocytes (rat) (UniProt P37089)", "test": "cell-based or functional assay"}, "[3]": {"target": "ENaC endogenous to primary human bronchial epithelial cultures (human) (UniProt P37088)", "sequence (P37088 whole entry, chain 1 of 3)": "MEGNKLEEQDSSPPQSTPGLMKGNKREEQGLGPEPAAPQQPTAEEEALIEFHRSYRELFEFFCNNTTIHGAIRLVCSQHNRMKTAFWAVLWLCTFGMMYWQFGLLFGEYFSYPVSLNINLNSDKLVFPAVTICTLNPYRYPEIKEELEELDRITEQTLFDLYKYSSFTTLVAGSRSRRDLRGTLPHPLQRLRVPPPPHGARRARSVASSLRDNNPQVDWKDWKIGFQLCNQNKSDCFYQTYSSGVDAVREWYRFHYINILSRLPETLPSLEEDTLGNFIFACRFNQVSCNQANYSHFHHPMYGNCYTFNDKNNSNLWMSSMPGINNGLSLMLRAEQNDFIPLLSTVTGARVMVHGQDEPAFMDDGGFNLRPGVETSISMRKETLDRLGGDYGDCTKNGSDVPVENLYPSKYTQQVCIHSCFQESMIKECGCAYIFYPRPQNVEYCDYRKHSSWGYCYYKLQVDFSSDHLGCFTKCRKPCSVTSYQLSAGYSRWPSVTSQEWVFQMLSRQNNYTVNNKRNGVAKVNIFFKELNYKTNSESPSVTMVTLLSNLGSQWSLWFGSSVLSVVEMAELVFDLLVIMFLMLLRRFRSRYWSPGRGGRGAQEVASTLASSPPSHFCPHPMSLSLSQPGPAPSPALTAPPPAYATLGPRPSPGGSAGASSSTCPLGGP", "sequence (P51168 whole entry, chain 2 of 3, further chain)": "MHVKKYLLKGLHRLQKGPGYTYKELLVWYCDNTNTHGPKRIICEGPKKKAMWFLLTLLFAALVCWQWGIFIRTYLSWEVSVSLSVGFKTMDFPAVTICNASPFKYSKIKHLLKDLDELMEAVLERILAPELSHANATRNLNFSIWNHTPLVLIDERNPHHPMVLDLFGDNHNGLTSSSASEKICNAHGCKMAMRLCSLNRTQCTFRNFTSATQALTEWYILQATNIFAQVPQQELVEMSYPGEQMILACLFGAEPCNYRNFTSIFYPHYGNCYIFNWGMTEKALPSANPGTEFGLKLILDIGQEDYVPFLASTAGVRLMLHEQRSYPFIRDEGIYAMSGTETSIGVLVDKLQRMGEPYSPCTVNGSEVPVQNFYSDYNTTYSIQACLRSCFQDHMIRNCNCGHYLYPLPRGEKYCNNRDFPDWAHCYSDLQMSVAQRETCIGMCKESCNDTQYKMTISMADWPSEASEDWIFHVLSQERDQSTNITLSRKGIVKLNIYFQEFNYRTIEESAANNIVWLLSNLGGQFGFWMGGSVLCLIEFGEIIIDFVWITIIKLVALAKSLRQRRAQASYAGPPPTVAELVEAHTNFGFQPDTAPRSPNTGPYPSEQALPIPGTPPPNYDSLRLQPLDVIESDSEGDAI", "sequence (P51170 whole entry, chain 3 of 3, further chain)": "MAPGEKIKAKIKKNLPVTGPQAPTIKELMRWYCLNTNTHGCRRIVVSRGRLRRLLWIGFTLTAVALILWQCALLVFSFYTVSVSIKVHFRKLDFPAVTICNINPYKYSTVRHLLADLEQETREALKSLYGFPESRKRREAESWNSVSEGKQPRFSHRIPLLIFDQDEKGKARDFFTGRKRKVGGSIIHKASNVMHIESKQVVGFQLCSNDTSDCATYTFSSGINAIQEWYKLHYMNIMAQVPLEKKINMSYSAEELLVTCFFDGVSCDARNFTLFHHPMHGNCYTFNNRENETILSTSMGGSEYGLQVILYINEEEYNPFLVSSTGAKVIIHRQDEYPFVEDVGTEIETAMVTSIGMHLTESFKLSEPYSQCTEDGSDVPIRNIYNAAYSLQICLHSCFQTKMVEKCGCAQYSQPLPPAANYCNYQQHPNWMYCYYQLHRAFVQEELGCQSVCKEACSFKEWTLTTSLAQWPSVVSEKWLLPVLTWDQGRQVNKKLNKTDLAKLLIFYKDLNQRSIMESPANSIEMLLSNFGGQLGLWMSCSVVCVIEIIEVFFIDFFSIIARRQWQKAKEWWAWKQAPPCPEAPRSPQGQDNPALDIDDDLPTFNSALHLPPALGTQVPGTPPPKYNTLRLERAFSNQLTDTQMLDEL", "test": "cell-based or functional assay"}, "[4]": {"target": "yfp-tagged αENaC stably expressed on JME nasal epithelial cells", "sequence (P37088 whole entry)": "as the sequence (P37088 whole entry, chain 1 of 3) above", "test": "fluorescence binding isotherm on polarized JME cells expressing yfp-αENaC, empty-vector cells as non-specific control, Hill fit"}, "[5]": {"tested_on": "T2, Recombinant SPLUNC1 (V5/6His-tagged, purified from HEK293 media)", "T2 sequence": "B1 chain"}, "[6]": {"target": "αβγENaC expressed in Xenopus laevis oocytes (rat, UniProt P37089 1-698; P37090 1-638; P37091 1-650)", "test": "cell-based or functional assay"}}}
{"molecule": "C[N+](C)(C)CCSS(C)(=O)=O.[Br-]", "note": "[MTSET, reference compound]", "values": [{"measurement": "ENaC Po", "setting": "[1]", "value": 1.0}]}
{"molecule": "Recombinant SPLUNC1 (V5/6His-tagged, purified from HEK293 media) (from UniProt Q9NP55 20-256)", "values": [{"measurement": "decrease in ENaC currents (amiloride-sensitive whole cell current, oocytes)", "setting": "[2]", "value": 70, "unit": "%"}, {"measurement": "ENaC inhibition", "setting": "[3]", "value": 70, "unit": "%"}, {"measurement": "transepithelial electrical resistance", "setting": "[3]", "value": 33, "unit": "%"}]}
{"molecule": "Texas red-labeled recombinant SPLUNC1 (from UniProt Q9NP55 20-256)", "values": [{"measurement": "Kd", "setting": "[4]", "value": 0.055, "unit": "µg/mL"}]}
{"molecule": "trypsin", "values": [{"measurement": "cleavage of fluorogenic substrate BGAR-MCA by 1.0 or 0.3 U/ml trypsin", "setting": "[5]", "value": "50 ng/ml rSPLUNC1 had only a modest affect (˜10%) on the ability of either 1.0 or 0.3 U/ml trypsin to cleave a fluorogenic substrate"}]}
{"molecule": "B1", "values": [{"measurement": "decrease in amiloride-sensitive ENaC current relative to control oocytes", "setting": "[6]", "value": "~70", "unit": "%"}]}
